Target: human PSMA on cells (human)
Test: FACS, 22RV1

human PSMA on cells (human), sequence (A4UU12 whole entry): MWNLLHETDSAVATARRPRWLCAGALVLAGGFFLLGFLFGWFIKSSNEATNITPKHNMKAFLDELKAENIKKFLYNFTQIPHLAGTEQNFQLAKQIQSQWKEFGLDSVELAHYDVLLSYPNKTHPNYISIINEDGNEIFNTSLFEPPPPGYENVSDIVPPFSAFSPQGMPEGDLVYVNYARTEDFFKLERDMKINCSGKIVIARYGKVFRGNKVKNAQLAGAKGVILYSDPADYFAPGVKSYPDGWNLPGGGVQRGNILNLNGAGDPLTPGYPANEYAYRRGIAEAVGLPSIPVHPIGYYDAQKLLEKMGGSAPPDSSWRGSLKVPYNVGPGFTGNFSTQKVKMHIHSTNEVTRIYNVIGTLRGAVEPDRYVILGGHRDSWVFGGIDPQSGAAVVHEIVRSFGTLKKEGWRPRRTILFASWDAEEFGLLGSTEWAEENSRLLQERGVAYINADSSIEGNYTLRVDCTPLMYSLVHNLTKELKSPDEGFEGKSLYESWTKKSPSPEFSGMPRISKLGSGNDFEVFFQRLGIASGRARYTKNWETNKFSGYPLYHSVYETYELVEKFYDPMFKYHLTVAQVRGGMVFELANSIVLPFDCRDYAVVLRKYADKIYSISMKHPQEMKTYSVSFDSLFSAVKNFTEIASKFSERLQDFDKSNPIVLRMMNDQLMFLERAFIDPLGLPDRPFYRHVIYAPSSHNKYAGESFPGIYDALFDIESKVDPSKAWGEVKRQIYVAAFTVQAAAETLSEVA

EC50: 78.5 nM
B1: BSPSMA/CD3-001 PSMA arm (antibody, V domains shown)
VH: QVQLVESGGGVVQPGRSLRLSCAASGFTFITYGMHWVRQAPGKGLEWVAIIYYDESNKYYADSVKGRFTISRDISKNTLYLQMNGLRAEDTAVYYCARAPRVAVEEDYSYYYGMDVWGQGTTVTVSS
VL: EIVMTQSPATLSVSPGERAILSCRASQNINSNLAWYQQKPGQAPRLLIYGASTRATGVPARFSGSGSGTEFTLTIRSLQSEDFAVYYCQQYYNWPITFGHGTRLEIK

Reference: patent US20210403595 (published 2021)
